Assay results as given in patent US20260250318A1, “COMPOSITIONS AND METHODS FOR CROSSING THE BLOOD BRAIN BARRIER” (VOYAGER THERAPEUTICS, INC., priority 2022, published 2026).
Changes are numbered by the printed parent chain.

B1: TTM-006: AAV9 capsid variant, full length capsid sequence of Table 4 (protein)
chain: MAADGYLPDWLEDNLSEGIREWWALKPGAPQPKANQQHQDNARGLVLPGYKYLGPGNGLDKGEPVNAADAAALEHDKAYDQQLKAGDNPYLKYNHADAEFQERLKEDTSFGGNLGRAVFQAKKRLLEPLGLVEEAAKTAPGKKRPVEQSPQEPDSSAGIGKSGAQPAKKRLNFGQTGDTESVPDPQPIGEPPAAPSGVGSLTMASGGGAPVADNNEGADGVGSSSGNWHCDSQWLGDRVITTSTRTWALPTYNNHLYKQISNSTSGGSSNDNAYFGYSTPWGYFDFNRFHCHFSPRDWQRLINNNWGFRPKRLNFKLFNIQVKEVTDNNGVKTIANNLTSTVQVFTDSDYQLPYVLGSAHEGCLPPFPADVFMIPQYGYLTLNDGSQAVGRSSFYCLEYFPSQMLRTGNNFQFSYEFENVPFHSSYAHSQSLDRLMNPLIDQYLYYLSKTEKMSGSPHSKAQNQQTLKFSVAGPSNMAVQGRNYIPGPSYRQQRVSTTVTQNNNSEFAWPGASSWALNGRNSLMNPGPAMASHKEGEDRFFPLSGSLIFGKQGTGRDNVDADKVMITNEEEIKTTNPVATESYGQVATNHQSAQAQAQTGWVQNQGILPGMVWQDRDVYLQGPIWAKIPHTDGNFHPSPLMGGFGMKHPPPQILIKNTPVPADPPTAFNKDKLNSFITQYSTGQVSVEIEWELQKENSKRWNPEIQYTSNYYKSNNVEFAVNTEGVYSEPRPIGTRYLTRNL
B2: TTM-018: AAV9 capsid variant, full length capsid sequence of Table 4 (protein)
chain: B1 chain with E451I, K452N, M453G, S454H, G455D, Q464L
B3: TTM-019: AAV9 capsid variant, full length capsid sequence of Table 4 (protein)
chain: B1 chain with E451V, K452N, M453G, S454H, G455D

Tests used:
ALPL [1] = biological target: T1, ALPL (Homo sapiens, UniProt P05186); test: SPR (Biacore 8K) binding of peptide ligands to ALPL; settings: 50 μM peptides or 250 nM capsids flowed over
T1 sequence (P05186 18-501): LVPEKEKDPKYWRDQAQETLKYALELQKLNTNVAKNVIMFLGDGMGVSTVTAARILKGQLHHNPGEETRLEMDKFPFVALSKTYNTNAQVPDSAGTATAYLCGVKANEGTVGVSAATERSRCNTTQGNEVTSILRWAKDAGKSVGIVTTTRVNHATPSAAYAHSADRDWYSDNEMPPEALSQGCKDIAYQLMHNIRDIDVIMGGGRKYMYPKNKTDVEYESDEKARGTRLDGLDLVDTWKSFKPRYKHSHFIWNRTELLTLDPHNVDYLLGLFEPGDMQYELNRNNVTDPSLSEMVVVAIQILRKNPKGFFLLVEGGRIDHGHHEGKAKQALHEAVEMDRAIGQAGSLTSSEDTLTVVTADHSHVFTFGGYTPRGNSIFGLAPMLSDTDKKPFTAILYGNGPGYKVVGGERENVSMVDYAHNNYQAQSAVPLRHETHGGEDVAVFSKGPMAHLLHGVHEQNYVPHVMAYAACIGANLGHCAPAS
Method: Binding and interaction between the peptides and the ALPL receptor were measured by Surface Plasmon Resonance (SPR) on a Biacore 8K instrument. The biotinylated peptides in Table 37 were captured on the streptavidin biosensor chip and 1000 nM of ALPL and buffer were passed over the peptides to monitor binding. […] His-tagged ALPL was then captured on the chip pre-immobilized with anti-His antibody, and 50 μM of the peptides in Table 37 or 250 nM of the AAV9 control capsid, the TTM-001 capsid variant (SEQ ID NO: 981), or the TTM-002 capsid variant (SEQ ID NO: 982) were flowed over the ALPL to check for binding. […] The longer peptides derived from TTM-002,
were also flowed over the his-tagged ALPL captured on the CM5 sensor chip pre-immobilized with anti-His antibody.
Binding and interaction between the phosho-peptides and the ALPL receptor were also measured by SPR. The biotinylated and phosphorylated peptides in Table 38 were captured on the streptavidin biosensor chip along with their non-phosphorylated counterparts, […] (SEQ ID NO: 4500) and […] (SEQ ID NO: 4503). ALPL and buffer were passed over the peptides to monitor binding. The concentration of ALPL used ranged from 0 to 500 nM (0 nM, 125 nM, 250 nM, and 500 nM).
In a second experiment, his-tagged ALPL was first captured on a CM5 sensor chip pre-immobilized with anti-His antibody. The phosphorylated peptides in Table 38 and their non-phosphorylated counterparts, […] (SEQ ID NO: 4500) and […] (SEQ ID NO: 4503) and buffer were flowed over the ALPL protein to monitor binding.

AAVR = biological target: T2, AAVR (Homo sapiens, UniProt Q8IZA0); assay type: cell-based; settings: Table 28; AAVR transfected cells
T2 construct: expressed in transfected cells; host or cells: HEK 293T
T2 sequence (Q8IZA0 whole entry, looked up): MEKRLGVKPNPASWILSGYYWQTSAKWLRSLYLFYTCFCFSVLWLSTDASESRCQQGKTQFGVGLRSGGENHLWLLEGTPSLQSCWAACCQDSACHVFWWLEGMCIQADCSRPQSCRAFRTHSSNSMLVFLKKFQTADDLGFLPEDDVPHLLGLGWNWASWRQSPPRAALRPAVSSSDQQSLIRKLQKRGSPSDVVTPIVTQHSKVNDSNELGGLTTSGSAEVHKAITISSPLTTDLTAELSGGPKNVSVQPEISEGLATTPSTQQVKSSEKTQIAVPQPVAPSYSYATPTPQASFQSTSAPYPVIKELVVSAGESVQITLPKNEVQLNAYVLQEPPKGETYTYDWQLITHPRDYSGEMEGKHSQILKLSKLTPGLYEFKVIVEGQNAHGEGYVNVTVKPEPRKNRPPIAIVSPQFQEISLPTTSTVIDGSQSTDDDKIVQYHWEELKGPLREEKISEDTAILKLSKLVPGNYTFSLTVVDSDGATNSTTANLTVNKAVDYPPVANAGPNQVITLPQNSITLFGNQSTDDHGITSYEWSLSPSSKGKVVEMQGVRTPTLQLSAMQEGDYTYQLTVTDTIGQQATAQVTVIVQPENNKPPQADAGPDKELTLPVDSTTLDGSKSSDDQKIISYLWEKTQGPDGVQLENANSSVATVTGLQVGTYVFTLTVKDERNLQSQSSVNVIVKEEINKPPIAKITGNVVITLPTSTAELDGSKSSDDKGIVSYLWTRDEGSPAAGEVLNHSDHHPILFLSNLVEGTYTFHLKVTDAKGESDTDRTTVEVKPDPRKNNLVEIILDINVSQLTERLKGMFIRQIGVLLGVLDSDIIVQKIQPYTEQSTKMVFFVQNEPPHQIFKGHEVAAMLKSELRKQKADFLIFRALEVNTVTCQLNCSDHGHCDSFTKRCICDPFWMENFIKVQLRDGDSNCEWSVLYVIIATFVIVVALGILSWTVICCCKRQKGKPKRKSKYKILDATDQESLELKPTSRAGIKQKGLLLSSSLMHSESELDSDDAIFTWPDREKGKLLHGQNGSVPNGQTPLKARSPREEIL
Method: (§1) Briefly, a transduction assay was performed in that HEK 293T cells were transfected via calcium phosphate transfection with a plasmid expressing ALPL, an AAVR positive control, or a pCMV6 negative control (250 ng or 500 ng of plasmid). AAVR is a universal AAV entry factor involved in AAV transduction. […] At 24-hours post-transduction, GFP expression and luciferase activity were measured to quantify and observe AAV cellular transduction. […] The TTM-002, TTM-006, TTM-018, and TTM-019 capsid variants all comprised the SPH motif immediately subsequent to position 455, numbered relative to SEQ ID NO: 138 and a positive residue in one of the next three residues subsequent to the SPH motif.

[2] = test system: HEK 293T cells transfected with pCMV6 negative control; assay type: cell-based; settings: Table 28; pCMV6 transfected cells (negative control, reference)
Method: as §1
Three isoforms of ALPL exist, isoform 1 (Alkaline phosphatase, placental-like 2 (ALPPL2), NM_031313, which is incorporated by reference herein), isoform 2 (alkaline phosphatase, placental (ALPP), NM_001632, which is incorporated by reference herein), and isoform 3 (alkaline phosphatase, intestinal (ALPLI), NM_001631, which is incorporated by reference herein), that can also be expressed on cell surfaces via a GPI-anchor. […] The transduction assay described above was repeated with the three isoforms. HEK 293T cells were transfected via calcium phosphate transfection with a plasmid expressing ALPL, isoform 1 of ALPL, isoform 2 of ALPL, isoform 3 of ALPL, an AAVR positive control, or a pCMV6 negative control. At 24 hours post-transfection, the HEK 293T cells expressing the ALPL receptor were transduced with an AAV particle comprising the TTM-001 capsid variant or the TTM-002 capsid variant, expressing a Luc2-GFP payload. At 24-hours post-transduction, luciferase activity (RLU) was measured to quantify AAV cellular transduction.
To determine if deletion of the endoplasmic reticulum (ER) localization signal of ALPL affected transduction of the TTM-001 and TTM-002 capsid variants, HEK 293T cells were transfected via calcium phosphate transfection with a plasmid expressing ALPL, ALP with a deletion of the ER localization signal (ALPL transcript variant 2 that lacks the ER signal (NM_001127501, which is incorporated by reference herein)), or a pCMV6 negative control. At 24 hours post-transfection, the HEK 293T cells expressing the ALPL receptor were transduced with an AAV particle comprising the TTM-001 capsid variant, the TTM-002 capsid variant, or an AAV9 capsid control, expressing a GFP payload. At 24-hours post-transduction, luciferase activity (RLU) was measured to quantify AAV cellular transduction. Data was normalized to fold change in luciferase activity (RLU) compared to the pCMV6 control.
(§2) To determine if the TTM-001 and TTM-002 capsid variants could bind to both the human ALPL protein (NM_000478.6, which is incorporated by reference herein) and the mouse ALPL ortholog (NM_001287172.1, which is incorporated by reference herein), HEK 293T cells were transfected via calcium phosphate transfection with a plasmid expressing human ALPL, the murine ortholog of ALPL, or a pCMV6 negative control. At 24 hours post-transfection, the HEK 293T cells expressing the ALPL receptor were transduced with an AAV particle comprising the TTM-001 capsid variant, the TTM-002 capsid variant, or an AAV9 control capsid protein, expressing a Luc2-GFP payload. At 24-hours post-transduction, luciferase activity (RLU) was measured to quantify AAV cellular transduction.
AAV entry factor involved in AAV transduction), or a pCMV6 negative control.

ALPL [3] = biological target: T3, ALPL (Homo sapiens, UniProt P05186); assay type: cell-based; settings: for Luciferase Activity (fold change relative to pCMV6 transfected cells): Table 28, ALPL transfected cells; for fold increase in transduction by luciferase assay in cells expressing ALPL: relative to pCMV6 transfected cells, 24 hours post-transduction
T3 construct: expressed in transfected cells; host or cells: HEK 293T
T3 sequence (P05186 whole entry, looked up): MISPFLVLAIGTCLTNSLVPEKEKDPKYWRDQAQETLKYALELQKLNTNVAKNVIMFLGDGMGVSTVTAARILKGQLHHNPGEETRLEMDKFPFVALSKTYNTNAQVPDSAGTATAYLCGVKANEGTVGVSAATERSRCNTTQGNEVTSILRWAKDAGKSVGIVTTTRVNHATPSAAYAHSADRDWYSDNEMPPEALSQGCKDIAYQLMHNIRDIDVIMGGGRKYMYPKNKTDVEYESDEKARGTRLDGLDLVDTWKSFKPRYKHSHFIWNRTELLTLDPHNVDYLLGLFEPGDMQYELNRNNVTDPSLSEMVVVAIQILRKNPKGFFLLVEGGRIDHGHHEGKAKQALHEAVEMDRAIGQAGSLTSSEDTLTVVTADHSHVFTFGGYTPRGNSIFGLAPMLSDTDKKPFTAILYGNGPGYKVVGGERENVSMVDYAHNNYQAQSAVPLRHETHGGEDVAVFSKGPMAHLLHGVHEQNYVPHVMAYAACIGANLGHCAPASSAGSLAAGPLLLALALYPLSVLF
Method: as §1, §2

Molecule | binding to ALPL by SPR, His-tagged ALPL captured on chip (ALPL [1]) | Luciferase Activity (fold change relative to pCMV6 transfected cells) (AAVR) | Luciferase Activity (fold change relative to pCMV6 transfected cells) [2] | Luciferase Activity (fold change relative to pCMV6 transfected cells) (ALPL [3]) | fold increase in transduction by luciferase assay in cells expressing ALPL (ALPL [3])
GSGSLYYLSKTINGHDSPHKSGQNQQTLKF [longer peptide derived from TTM-002] | no binding to ALPL was observed |  |  |  | 
GSGSRLMNPLIDQYLYYLSKTINGHDSPHKSGQNQQTLKFSVAGPSNMAV [longer peptide derived from TTM-002] | no binding to ALPL was observed |  |  |  | 
B1 |  | 25 fold | 1 fold | 91 fold | an increase in transduction
B2 |  | 25 fold | 1 fold | 90 fold | an increase in transduction
B3 |  | 28 fold | 1 fold | 88 fold | an increase in transduction
